Laboratory results published in patent publication US10934351B2, “Cancer stem cell-specific molecule” (CHUGAI SEIYAKU KABUSHIKI KAISHA, priority 2011, dated 2021).

B1: EPCAM (protein)
chain: QEECVCENYKLAVNCFVNNNRQCQCTSVGAQNTVICSKLAAKCLVMKAEMNGSKLGRRAKPEGALQNNDGLYDPDCDESGLFKAKQCNGTSMCWCVNTAGVRRTDKDTEITCSERVRTYWIIIELKHKAREKPYDSKSLRTALQKEITTRYQLDPKFITSILYENNVITIDLVQNSSQKTQNDVDIADVAYYFEKDVKGESLFHSKKMDLTVNGEQLDLDPGQTLIYYVDEKAPEFSMQGLKAGVIAVIVVVVIAVVAGIVVLVISRKKRMAKYEKAEIKEMGEMHRELNA
B2: BMP4: bone morphogenetic protein 4, polypeptide of SEQ ID NO: 4 (R&D Systems) (protein, listed as Homo sapiens)
chain: MIPGNRMLMVVLLCQVLLGGASHASLIPETGKKKVAEIQGHAGGRRSGQSHELLRDFEATLLQMFGLRRRPQPSKSAVIPDYMRDLYRLQSGEEEEEQIHSTGLEYPERPASRANTVRSFHHEEHLENIPGTSENSAFRFLFNLSSIPENEVISSAELRLFREQVDQGPDWERGFHRINIYEVMKPPAEVVPGHLITRLLDTRLVHHNVTRWETFDVSPAVLRWTREKQPNYGLAIEVTHLHQTRTHQGQHVRISRSLPQGSGNWAQLRPLLVTFGHDGRGHALTRRRRAKRSPKHHSQRARKKNKNCRRHSLYVDFSDVGWNDWIVAPPGYQAFYCHGDCPFPLADHLNSTNHAIVQTLVNSVNSSIPKACCVPTELSAISMLYLDEYDKVVLKNYQEMVVEGCGCR

Columns and labels:
[1] = test system: irinotecan-non-treated PLR123; test: Flow cytometry (FCM) binding activity of commercially available antibodies to cell-surface antigens; set-up: species or system human; details: with antibody
Experimental: (§1) The present inventors tested whether an anti-tumor effect can be expected with target therapy using a membrane protein expressed at a high level as the target in irinotecan-treated or non-treated PLR59 and PLR123. Commercially available antibodies shown in Table 12 were assessed by flow cytometry (FCM) for the binding activity to antigens expressed on the cell surface of irinotecan-treated or non-treated PLR59 or PLR123.

[2] = test system: irinotecan-non-treated PLR59; test: as above; set-up: species or system human; details: with antibody
Experimental: as §1

[3] = test system: irinotecan-treated PLR123; test: Internalization activity / anti-tumor effect with Mab-ZAP or Rat-ZAP (CellTiter-Glo); format: cell-based, human; details: PLR123, Irinotecan-treated (15 μM, 72 hours)
Experimental: (§2) Mab-ZAP and Rat-ZAP are anti-mouse IgG antibody and anti-rat IgG antibody, respectively, conjugated with saporin, a toxin that inhibits protein synthesis (Advanced Targeting Systems). To assess the activity of internalization into irinotecan-non-treated cells, PLR59 and PLR123 cells were seeded at a cell density of 30000 cells/80 μl/well to respective wells of a 96-well plate. Following day, each antibody solution was added at a final concentration of 0.01, 0.1, or 1 μg/ml to the respective wells. Then, Mab-ZAP or Rat-ZAP was added at a final concentration 1 μg/ml to the respective wells, and the plate was incubated at 37° C. for 72 hours in a CO2 incubator. To assess the activity of internalization into irinotecan-treated cells, PLR59 and PLR123 cells were seeded in a 96-well plate, and irinotecan was added at a final concentration of 15 μM to each well. The plate was incubated at 37° C. for 72 hours in a CO2 incubator. Various antibodies were assessed for the activity of internalization to cells cultured as described above in the presence or absence of irinotecan. For assay, the various antibodies were each assessed for the internalization activity into cells contained in each well where the medium was replaced with the same irinotecan-free medium as used for irinotecan-non-treated cells. Seventy-two hours after addition of antibodies and Mab-ZAP or Rat-ZAP, 10 μl of 3% SDS (Nacalai Tesque) was added to each well of the plate. The cells in the plate were lysed thoroughly by stirring the plate using a plate mixer. Then, 100 μl of CellTiter-Glo™ Luminescent Cell Viability Assay (Promega) was added to each well. The mixture in each well was assayed to determine its luminescent signal. […] In Table 14, symbols, −, +, ++, and +++, represent relative values for the internalization activity when a test antibody was assayed at a concentration of […]. […] Symbols, −, +, ++, and +++, indicate that the relative value is less than 5%, 5% or more and less than 15%, 15% or more and less than 25%, and 25% or more, respectively.

[4] = test system: irinotecan-non-treated PLR123; test: as above; format: cell-based, human; details: with Mab-ZAP or Rat-ZAP 1 μg/ml, 72 hours
Experimental: as §2

irinotecan-treated PLR59 = test: as above; format: cell-based, human; details: PLR59, Irinotecan-treated (15 μM, 72 hours)
Experimental: as §2

[5] = test system: irinotecan-non-treated PLR59; test: as above; format: cell-based, human; details: with Mab-ZAP or Rat-ZAP 1 μg/ml, 72 hours
Experimental: as §2

PLR123 = test: Differentiation-enhancing effect of BMP4 (CK20 expression, quantitative real-time PCR); format: cell-based, human; details: BMP4 20 nM; irinotecan-non-treated and irinotecan-treated PLR123 (FIG. 73B)
Experimental: (§3) BMP4 was assessed for the differentiation-enhancing effect on irinotecan-non-treated and irinotecan-treated PLR59 and PLR123. To assess the differentiation-enhancing effect on irinotecan-non-treated cells, PLR59 and PLR123 cells suspended in the media where BMP4 (R&D Systems; a final concentration of 20 nM) or a control buffer was added to culture media were seeded at a cell density of 5×10^5 cells/1.5 ml/well to each well of a 12-well plate. The cells were passaged while changing the culture media with the same type of medium 2, 4, and 7 days after seeding. To assess the differentiation-enhancing effect on irinotecan-treated cells, PLR59 or PLR123 was seeded at a cell density of 17×10^5 cells/5 ml/flask to a 12.5-ml culture flask. Following day, irinotecan was added at a final concentration of 15 μM. The flask was incubated at 37° C. for 72 hours in a CO2 incubator. Then, the medium in the flask was changed with a medium containing BMP4 or a control buffer. The medium was further changed with the same type of medium 2, 4, and 7 days after the initial medium change. […]
(§4) Quantitative real-time PCR was carried out using the cDNAs isolated as described above.

PLR59 = test: as above; format: cell-based, human; details: BMP4 20 nM; irinotecan-non-treated and irinotecan-treated PLR59 (FIG. 73A)
Experimental: as §3, §4

Molecule	binding activity by flow cytometry (FCM), Antibody + [1]	binding activity by flow cytometry (FCM), Antibody + [2]	internalization activity level [3]	internalization activity level [4]	internalization activity level (irinotecan-treated PLR59)	internalization activity level [5]	CK20 expression level (PLR123)	CK20 expression level (PLR59)
B1	7701	7563	+++ (25% or more)	+++ (25% or more)	+++ (25% or more)	+++ (25% or more)		
B2							elevated CK20 levels	elevated CK20 levels
